Results from patent publication US20260374873 (published 2026).

Tests used:
human B7-H2 = biological target: T1, human B7-H2 (human, UniProt O75144); test: ELISA
T1 chain: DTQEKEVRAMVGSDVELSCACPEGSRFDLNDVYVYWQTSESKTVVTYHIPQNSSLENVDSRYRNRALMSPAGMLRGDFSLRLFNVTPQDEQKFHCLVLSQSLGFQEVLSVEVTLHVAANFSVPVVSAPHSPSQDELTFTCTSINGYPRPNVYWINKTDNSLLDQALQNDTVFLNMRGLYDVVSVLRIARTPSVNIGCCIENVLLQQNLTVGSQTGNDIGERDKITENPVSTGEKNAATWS

human B7-1 = biological target: T2, human B7-1 (human, UniProt P33681); test: ELISA
T2 chain: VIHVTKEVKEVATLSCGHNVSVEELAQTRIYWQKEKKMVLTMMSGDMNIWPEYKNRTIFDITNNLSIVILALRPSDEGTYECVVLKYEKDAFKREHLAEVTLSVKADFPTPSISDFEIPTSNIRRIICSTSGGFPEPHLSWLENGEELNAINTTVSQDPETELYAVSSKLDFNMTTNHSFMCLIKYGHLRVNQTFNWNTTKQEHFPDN

rat B7-H3 = biological target: T3, rat B7-H3 (rat, UniProt Q7TPB4); test: BLI
T3 chain: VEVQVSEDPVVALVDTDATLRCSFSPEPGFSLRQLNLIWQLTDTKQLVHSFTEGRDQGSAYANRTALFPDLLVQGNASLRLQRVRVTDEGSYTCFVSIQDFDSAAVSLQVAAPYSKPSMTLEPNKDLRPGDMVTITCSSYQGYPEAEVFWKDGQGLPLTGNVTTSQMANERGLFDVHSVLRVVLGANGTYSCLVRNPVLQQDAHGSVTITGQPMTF

human B7-2 = biological target: T4, human B7-2 (human, UniProt P42081); test: ELISA
T4 chain: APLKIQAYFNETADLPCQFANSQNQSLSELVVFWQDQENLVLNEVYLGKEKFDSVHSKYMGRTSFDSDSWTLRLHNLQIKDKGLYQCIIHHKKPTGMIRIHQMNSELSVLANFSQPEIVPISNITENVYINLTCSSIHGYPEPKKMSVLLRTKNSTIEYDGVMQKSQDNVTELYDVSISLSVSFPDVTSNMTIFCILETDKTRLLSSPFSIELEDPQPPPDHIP

rat B7-H3 on CHO-S = biological target: T5, rat B7-H3 on CHO-S (rat, UniProt Q7TPB4); test: FACS
T5 chain: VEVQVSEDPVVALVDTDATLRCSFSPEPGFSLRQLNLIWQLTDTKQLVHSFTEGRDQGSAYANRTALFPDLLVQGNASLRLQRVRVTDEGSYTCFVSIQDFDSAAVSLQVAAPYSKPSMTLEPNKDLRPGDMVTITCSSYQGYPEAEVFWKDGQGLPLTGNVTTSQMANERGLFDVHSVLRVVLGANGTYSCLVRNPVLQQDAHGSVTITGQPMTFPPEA

human B7-H1 = human B7-H1 (human, UniProt Q9NZQ7); test: ELISA
human B7-H4 = biological target: T6, human B7-H4 (human, UniProt Q7Z7D3); test: ELISA
T6 chain: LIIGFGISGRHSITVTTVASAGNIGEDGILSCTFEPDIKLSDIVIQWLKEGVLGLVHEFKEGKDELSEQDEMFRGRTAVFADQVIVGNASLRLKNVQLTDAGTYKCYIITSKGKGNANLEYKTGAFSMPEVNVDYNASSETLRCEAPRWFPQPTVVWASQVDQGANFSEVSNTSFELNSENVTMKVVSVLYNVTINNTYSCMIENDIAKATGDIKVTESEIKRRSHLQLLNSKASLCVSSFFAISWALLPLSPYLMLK

Measured: binding result

Sequence of human B7-H1 (Q9NZQ7 19-238): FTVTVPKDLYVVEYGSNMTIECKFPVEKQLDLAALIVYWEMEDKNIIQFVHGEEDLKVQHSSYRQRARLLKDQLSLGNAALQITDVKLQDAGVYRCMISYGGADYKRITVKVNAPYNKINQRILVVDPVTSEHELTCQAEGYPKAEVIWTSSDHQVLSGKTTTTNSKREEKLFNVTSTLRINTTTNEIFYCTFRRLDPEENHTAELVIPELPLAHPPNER

B1: 2#8890 (antibody, V domains shown)
VH: QVQLQESGPGLVQPSGTLSLTCAVSGGSDSSTNWWTWVRQSPGQGLEWIGEISPIGFTSYSPSLRSRVTISVDKSKTQFSLKLSSVTAADTAVYYCARDRLYFAFWGQGTLVTVSS
VL: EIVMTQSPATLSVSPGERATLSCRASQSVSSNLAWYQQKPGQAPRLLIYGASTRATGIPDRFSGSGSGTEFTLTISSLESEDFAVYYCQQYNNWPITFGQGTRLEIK
no binding: human B7-H2 | human B7-1 | rat B7-H3 | human B7-2 | rat B7-H3 on CHO-S | human B7-H1 | human B7-H4
